Experimental data taken from patent US20240360229A1.

Target: human CCR8 (human) (UniProt P51685)
Experiment: cell-based or functional assay

Sequence of human CCR8 (human) (P51685 whole entry): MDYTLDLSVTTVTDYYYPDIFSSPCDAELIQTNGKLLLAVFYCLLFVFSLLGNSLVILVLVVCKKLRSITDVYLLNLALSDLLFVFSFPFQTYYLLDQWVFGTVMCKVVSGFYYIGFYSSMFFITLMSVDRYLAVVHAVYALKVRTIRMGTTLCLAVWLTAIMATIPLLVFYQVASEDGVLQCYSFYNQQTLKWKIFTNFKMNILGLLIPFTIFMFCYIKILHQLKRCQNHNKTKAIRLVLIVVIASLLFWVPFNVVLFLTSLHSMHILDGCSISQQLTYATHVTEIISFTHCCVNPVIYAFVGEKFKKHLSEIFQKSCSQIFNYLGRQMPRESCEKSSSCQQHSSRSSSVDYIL

IC50 of inhibition of CCL1-mediated activation of CCR8 (Ca2+ influx, FLIPR, CHO/hCCR8.Gna15 cells): 8.4 nM
B1: control antibody (BD, Cat. #433H) (antibody, from another filing, V domains shown)
VH: EVQLVETGGGLVQPKGSLRLSCAASGFPFNTFAMNWVRQAPGKGLEWLARIRSKSNNYATYYADSVKDRFTISRDDSRRMLYLLMNNVKFEDTAIYYCVRGKENNYGYAMDYWGQGTSVTVSS
VL: DIVMTQAAPSVPVTPGESVSISCRSSQSLLHSNGNTYLYWFLQRPGQSPQLLIYRMSNLASGVPDRFSGSGSGTAFTLRISRVEAEDVGVYYCMQHLEYPFTFGIGTKLELKR
